# Data taken from patent US20220227827A1 (DINGFU BIOTARGET, published 2022).
# B1: Human IL10R1 (receptor)
# chain: HGTELPSPPSVWFEAEFFHHILHWTPIPNQSESTCYEVALLRYGIESWNSISNCSQTLSYDLTAVTLDLYHSNGYRARVRAVDGSRHSNWTVTNTRFSVDEVTLTVGSVNLEIHNGFILGKIQLPRPKMAPANDTYESIFSHFREYEIAIRKVPGNFTFTHKKVKHENFSLLTSGEVGEFCVQVKPSVASRSNKGMWSKEECISLTRQYFTVTN
# notes: Bought recombinant protein coated on the ELISA plate; also called hIL10R1; human IL10R1 proteins
# B2: reverse-(IL10)2-Fc9-a (Fc fusion)
# chain 1: EPKSSDKTHTCPPCPAPELLGGPSVFLFPPKPKDTLMISRTPEVTCVVVDVSHEDPEVKFNWYVDGVEVHNAKTKPREEQYNSTYRVVSVLTVLHQDWLNGKEYKCKVSNKALPAPIEKTISKAKGQPREPQVYTLPPSRDELTKNQVSLSCGVKGFYPSDIAVEWESNGQPENNYKTTPPVLDSDGSFKLASKLTVDKSRWQQGNVFSCSVMHEALHNHYTQKSLSLSPGKGGGGSGGGGSGGGGSSPGQGTQSENSCTHFPGNLPNMLRDLRDAFSRVKTFFQMKDQLDNLLLKESLLEDFKGYLGCQALSEMIQFYLEEVMPQAENQDPDIKAHVNSLGENLKTLRLRLRRCHRFLPCENKSKAVEQVKNAFNKLQEKGIYKAMSEFDIFINYIEAYMTMKIRNGGGGSGGGGSGGGGSSPGQGTQSENSCTHFPGNLPNMLRDLRDAFSRVKTFFQMKDQLDNLLLKESLLEDFKGYLGCQALSEMIQFYLEEVMPQAENQDPDIKAHVNSLGENLKTLRLRLRRCHRFLPCENKSKAVEQVKNAFNKLQEKGIYKAMSEFDIFINYIEAYMTMKIRN
# chain 2: DKTHTCPPCPAPELLGGPSVFLFPPKPKDTLMISRTPEVTCVVVDVSHENPEVKFNWYVDGVEVHNAKTKPREEQYNSTYRVVSVLTVLHQDWLNGKEYKCKVSNKALPAPIEKTISKAKGQPREPQVYTLPPSRDELTKNQVSLWCLVKGFYPSDIAVEWESNGQPENNYKTTPPVLDSDGSFFLYSALTVDKSRWQQGNVFSCSVMHEALHNHYTQKSLSLSPGK
# notes: purified by protein A only; also called proteinaceous heterodimer of Group C
# How the values were obtained:
# [1] = biological target: Erb-(IL10)2; assay: ELISA, human IL10R1 coated
# [2] = biological target: B1; assay: ELISA, human IL10R1 coated at 5 ug/mL, detection with goat anti-hIgG-HRP
# Description: Human IL10R1 (R&D, 9100-R1-050) was diluted to 5 μg/mL with coating buffer (50 mM Na₂CO₃, NaHCO₃ pH 9.6), 100 μL/well, overnight at 4° C. After washing, the plates were sealed with 3% BSA-PBS for 1 h at 37° C. The heterodimer proteins of the present disclosure were respectively diluted from 2000 ng/mL and were then diluted 2-fold to a total of 11 concentrations, with the diluent (1% BSA-PBS) as a control, and incubated for 2 h at 37° C. Goat anti-hIgG-HRP (Sigma, A0170) was added and incubated for 1 h at 37° C. The soluble one-component TMB substrate developing solution was added, and the developing was performed in dark at room temperature for 5-10 min. 2N H₂SO₄ 50 μL/well was added to terminate the color development reaction.
binding result [1],EC50 [2],Binder
binds,,B1
,0.0123 µg/mL,B2
